Results as given in US20150010586A1.

Assays:
Conditions in all cases: remark: other sources report otherwise
HLA-A*0301 (human) = test: cellular competition assay vs FL-labelled reference peptide on B cells; affinity category (high/good IC50<5 uM, intermediate 5-15 uM, low >15-50 uM)
HLA-A*1101 (human) = test: as above
HLA-A*0201 (human) = test: HLA-A*0201 peptide stabilization assay; unstable if >50% of complexes lost within 2 h
HLA-A*0101 (human) = test: cellular competition assay vs FL-labelled reference peptide on B cells; affinity category (high/good IC50<5 uM, intermediate 5-15 uM, low >15-50 uM)

Row | IC50 (HLA-A*0301 (human)) [µM] | Binder | also measured
1 | 5 to 15 | VVRRCPHHER [p53 172-181 …] | 
2 | 5 to 15 | RAHSSHLKSK [p53 363-372 …] | 
3 |  | RAHSSHLK [p53 363-370 RAHSSHLK] | IC50 (HLA-A*1101 (human)): 5 to 15 µM
4 |  | FLHSGTAKSV [p53 113-122 …] | Stability (HLA-A*0201 (human)): 6 h
5 | 5 to 15 | KGQSTSRHK [p53 373-381 …] | 
6 | 5 to 15 | VTCTYSPALNK [p53 122-132 …] | 
7 |  | GLAPPQHLIRV [p53 187-197 …] | Stability (HLA-A*0201 (human)): 6 h
8 | 5 to 15 | GTRVRAMAIY [p53 154-163 …] | 
9 |  | RVEGNLRVEY [p53 196-205 …] | IC50 (HLA-A*0101 (human)): 5 to 15 µM
10 | 5 to 15 | FLHSGTAK [p53 113-120 FLHSGTAK] | 
11 | 5 to 15 | GFLHSGTAK [p53 112-120 …] | IC50 (HLA-A*1101 (human)): 5 to 15 µM
12 |  | RTEEENLRK [p53 283-291 …] | IC50 (HLA-A*1101 (human)): 5 to 15 µM
13 |  | RMPEAAPPV [p53 65-73 …] | Stability (HLA-A*0201 (human)): 6 h
